Experimental data: paper PMC10022506 (Journal of Agricultural and Food Chemistry, 2023)

Legend:
C=O = assay: purified protein; details: apparent, 100 mM pyruvate, 1 mM Mg2+, 50 mM CHES pH 9.0, 45 °C
EcYfaU = molecular target: T1, EcYfaU (Escherichia coli, UniProt P76469); assay: aldol condensation, HPLC; type: biochemical; details: co-substrate pyruvate; substrate inhibition at high concentration
T1 sequence (P76469 1-267): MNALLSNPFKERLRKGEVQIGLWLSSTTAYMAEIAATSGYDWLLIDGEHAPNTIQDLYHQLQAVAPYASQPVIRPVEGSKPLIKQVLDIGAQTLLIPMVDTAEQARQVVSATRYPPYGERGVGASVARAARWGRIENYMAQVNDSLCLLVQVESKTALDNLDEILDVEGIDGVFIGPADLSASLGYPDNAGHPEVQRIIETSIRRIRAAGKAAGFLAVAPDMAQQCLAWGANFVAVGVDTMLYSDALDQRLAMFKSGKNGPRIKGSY

| Compound | Km (C=O) | kcat (C=O) | kcat/Km (C=O) | aldol condensation, HPLC (EcYfaU) |
| --- | --- | --- | --- | --- |
| PaADL (Pseudomonas aeruginosa; L241A) | 65 ± 5.9 mM | 7.2 s⁻¹ | 110 M⁻¹ s⁻¹ |  |
| PaADL (Pseudomonas aeruginosa; L241A/V121A) | 35 ± 4.4 mM | 6.63 s⁻¹ | 183 M⁻¹ s⁻¹ |  |
| C=O [formaldehyde] |  |  |  | we measured the activity of EcYfaU at different substrate concentrations (Figure S7) |
| PaADL (Pseudomonas aeruginosa; V121A) | 35 ± 4.9 mM | 5.8 s⁻¹ | 167 M⁻¹ s⁻¹ |  |
